Reference: patent US20250019454A1 (BIOCYTOGEN PHARMACEUTICALS BEIJING, published 2025)

Experiments:
[1] = molecular target: T1, human TNFR2 (expressed on cells) (human, UniProt P20333 23-461); assay: cell-based or functional assay
T1 sequence: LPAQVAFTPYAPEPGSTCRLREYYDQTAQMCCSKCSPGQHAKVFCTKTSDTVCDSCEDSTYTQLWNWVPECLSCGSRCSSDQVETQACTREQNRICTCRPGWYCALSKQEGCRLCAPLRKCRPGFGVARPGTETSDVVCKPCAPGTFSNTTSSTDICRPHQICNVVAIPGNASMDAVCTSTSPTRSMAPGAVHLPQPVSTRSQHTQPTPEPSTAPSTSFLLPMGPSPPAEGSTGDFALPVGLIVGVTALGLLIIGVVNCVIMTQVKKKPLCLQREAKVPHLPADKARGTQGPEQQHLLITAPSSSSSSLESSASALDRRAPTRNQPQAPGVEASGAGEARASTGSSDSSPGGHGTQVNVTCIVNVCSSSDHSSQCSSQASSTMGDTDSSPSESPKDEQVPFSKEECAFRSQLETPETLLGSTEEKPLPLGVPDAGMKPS

[2] = molecular target: T2, ΔCRD4-TNFR2 protein (with CRD4 deletion), on CHO-S cells (human, UniProt P20333 23-461); assay: FACS on CHO-S cells with ΔCRD4-TNFR2
T2 construct: also called CHO-SΔCRD4-TNFR2; TNFR2 lacking CRD4
T2 sequence: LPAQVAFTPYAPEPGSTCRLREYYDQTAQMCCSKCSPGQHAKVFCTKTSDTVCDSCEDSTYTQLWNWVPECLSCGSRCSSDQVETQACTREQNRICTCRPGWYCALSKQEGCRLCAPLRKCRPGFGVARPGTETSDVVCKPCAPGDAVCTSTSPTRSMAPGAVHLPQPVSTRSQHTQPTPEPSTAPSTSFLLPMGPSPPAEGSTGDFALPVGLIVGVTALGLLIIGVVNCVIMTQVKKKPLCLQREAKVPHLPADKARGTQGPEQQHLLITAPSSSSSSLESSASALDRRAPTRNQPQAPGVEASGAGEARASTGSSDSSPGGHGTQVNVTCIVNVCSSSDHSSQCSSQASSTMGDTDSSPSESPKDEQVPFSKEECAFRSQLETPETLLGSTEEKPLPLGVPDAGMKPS
Source text: TNFR2 has four cysteine rich domains (CRD). In another experiment, FACS was used to detect the binding of anti-hTNFR2 antibodies to TNFR2 proteins with different structural domains. Secondary antibody (Alexa Fluor® 647 AffiniPure F(ab′) 2 Fragment Goat Anti-Human IgG, Fcγ fragment specific, Jackson ImmunoResearch Laboratories, Inc., Cat #: 151524) was used. The fluorescence-labeled secondary antibody can attach to the Fc region of the anti-hTNFR2 antibodies so that the anti-hTNFR2 antibodies that are bound to the ΔCRD cells can be detected by FACS. Specifically, ΔCRD1-TNFR2 protein (with CRD1 deleteion), ΔCRD2-TNFR2 protein (with CRD2 deleteion), ΔCRD3-TNFR2 protein (with CRD3 deleteion) or ΔCRD4-TNFR2 protein (with CRD4 deleteion) were expressed in CHO-S cells respectively, and then the binding between the cells and different anti-hTNFR2 antibodies was detected.

- EC50 (read off the curve) [1]: ~0.4 mg/L
- binding result [2]: no binding
B1: BC-1C3-IgG1 (antibody, V domains shown)
VH: QVQLVESGGGVVHPGKSLRLSCAASGFTFNIYGMHWVRQAPGKGLEWVALISYDGNDKYFADSVKGRFTISRDNSKNTLYLQMNSLRAEDTAVYYCAKAVDTAVVTFFDYWGQGTLVTVSS
VL: EIVMTQSPVTLSVSPGERATLSCRASQSVSSNLAWYQQKPGQAPRLLIYSASTRATGIPARFSGSGSGTEFTLTISSLQSEDLAVYYCQQYSNWPFTFGPGTKVDIK
notes: Human VH/VL joined to the human IgG1 subtype
